# From the DeepSol protein solubility set
# Assay: soluble on expression in E. coli; label from the status in PepcDB or PDB records
row,Sequence,soluble on expression in E. coli
1,MEIKERIQLLLSEMNRGVYEKEAEIGLSLLAALAGESILLLGPPGVAKSMVARRLKRAFVDARAFEYLMSRFSTPDEIFGPVSISRLKESDKYERAVDGYLPTADVVFLDEIWKAGPAIQNTLLTVINEKLFRNGDTELKLPLKLLVAASNELPTQGEGLEALWDRFLIRIISTCVKQEEAFYQMLLDDDDEEEQEACRWQISDEEYAGWQKEIRQIKVSAEVLSCITEIRKNLEKVEIQGSEVHRNVYVSDRRWKNIVKLLKASAFIHGRKEVCLTDLLPVYHCLWNEPEECADIRQIVVRALFVPYVKEIAAINLSLKSDLKVSRVREALEKARQKGDRRDDDLMIIDHFYYQIENHGTGNTYIFIVDYKNLKEYSPKDVPATGVMYADPLNPKRTIIRTFSDATKMKEQGAERVTLYRDEKNLYINGVRFPMRRLKRGEQQQLWLGNMTLTDRDYETELETAHGRIEKLVKDLSENIFISEEDKKGVAQYVATLRKEIAWARVDVRKLRYGDES,not soluble
2,MGGLTLFAAQGCKAPKQVAEQAEHPNIIYVFPDQYRNQAMGFWNQEGFRDKVNFRGDPVHTPNIDTFARESMVLTSAQSNCPLSSPHRGMLLTGMYPNRSGVPLNCNSTRPISSLRDDAECIGDVFSKAGYDCAYFGKLHADFPTPNDPENPGQYVETQRPVWDAYTPKEQRHGFNYWYSYGTFDEHKNPHYWDTDGKRHDPKEWSPLHESGKVVSYLKNEGNVRDTKKPFFIMVGMNPPHSPYRSLNDCEEQDFNLYKDQPLDSLLIRPNVDLNMKKAESVRYYFASVTGVDRAFGQILEALKQLGLDKNTVVIFASDHGETMCSQRTDDPKNSPYSESMNIPFLVRFPGKIQPRVDDLLLSAPDIMPTVLGLCGLGDSIPSEVQGRNFAPLFFDEKAEIVRPAGALYIQNLDGEKDKDGLVQSYFPSSRGIKTARYTLALYIDRKTKQLKKSLLFDDVNDPYQLNNLPLDENKEVVEQLYREMGTMLKEIDDPWYTEKILSDRIPYLEHHHHHH,not soluble
3,MSSHENDTPLPVPYTSRLGQPLDAGQTLNVHGKINEGAQVAEINLLQGGGEIGPNTQVILHLKLNFKEKKVILNSYENGVWGKEERESLPFQAGQEFDLRIRVLDEGLEISADNKKIHEFKHRLPFQSIEYLSVRGDLSLNGIHWGGRFYKLPWETAFPAGFLEKGQRVHLYGIPKGDRWSLDLVARNQDILFHFNPRIKDKAVVRNSHRNGFWDTEEREGGFPFKKDVGFDLTIVNEEYSIQIFINRERFGTFQHRTQNPIGDYIGLRIDGEVEVTGIEFSH,soluble
4,MPLEASELKPTAGPLEASELKPTAGPLEASELKPTAGPLEASELKPTAGPLEASELKPTAGPLEASELKPTAGPLEASELKPTAGMPSVQQDITHPKELLISTNWLNRKDVPFMNNQEQQIQNVLNTLRDPDTIRTRSHRILNLAKQNRLEHFSLNPERMTTTASYIVDIITSRYPELDIPYHSRWRHFEMDGLPRIHNLRKQLDPISPSEWGKILYELVIISVFLDAGAGPLWRYKEALTEKEYSRSEGLALASLYLYESGAFSADPTNPFRVDAERLLDFKETDLIKGFQVSSTNLLEGIPGRVSLLNRLGEIIHRKEHCFNRRKRLGEFYTYVESLQDNKILPTTKLFEAVLETFNDIWPVRLIYHGVSLGDVWIHSALKTNEAGSEYIPFHKLSQWLTYSLVEPLEQTGIDIADLDVLTGLPEYRNGGLLIDTELLKVRNNKILEQPQDPGSEPIVEWRALTVALLDELALLIRQQLNMNAESLPLAKILQGGTWEAGRQIAQKKRINGTPPIEIISDGTIFLEHHHHHH,not soluble
5,MIKDQDAEFHVTDSDPTWAETNFFGFFNAEHKLNVGVYALFRPNLGVVSSTICMNSGRAVTPWEADFCDLRSAMPIPTPRSLLDYKLLNTLHVHCLDPNRVWHIGYDDQQGTRIDVRYEALMPAFDIHDPEMDPMCGSESEAGKFAWGTAYDGHFDQTGHFKGSVAIRGREVPIDCVSTMDHSWGARPERGKPNMSWLHAHFSKDLAVHGIFGFDQTRNGVELWLAHGYVMERGRIVGLKAGTGQVERPQERYPEQLQLQVTDAKDRVWKLRGRALTTFPWQCWPNMISFNSLCAWEMNGLKGHGEVQDFFELPQLNALNSVESTRRPSRPL,not soluble
6,MGHHHHHHSHMLENRDYTLIIDKSGSMATPDQKGGRNRWVTAQESTLALASKCEQFDPDGITLYVFSGRFKRYENVTSAKVNQIFQENDPSGTTDLAAVLKHATDDYFQRKGAGKTKPNGETILVVTDGEPDDRKAVMRVIIEASRRMDKDEELAISFIQVGSDAQATRFLKVLDDELQGAGAKFDICDTVTMEDMEDLSLSEVLLNAITD,soluble
7,MLQQVREQVAARLRLDAGRPWLMVHAGSGGSANNLSIEQYARLIIKLNQACPELQCILTAGPGEERIAEQLAAELLAHGGNGWIYRSDEGLPKFCQVMANAALFVAGSTGPLHIAAALDVPTIGFFPAHRSATPLRWRPLNSEGRHLAFSPPEDSDHPEDMSQLDPKTMAAAIARWAPPFWRTEHLEHHHHHH,not soluble
8,MGSDKIHHHHHHMEMNDTRRRLIELIAEHHASHPGKKLGIEELSRRAGISRQSFNRYYKDLTDYAAGRKLIGDLVDDTTNAQTKQLINQQQEVMRDLQEQVEHSEIENAKKLKKAMDSYVTSLMVNDLTAHAANSLRITLEKQTVHNLQLKQELTNMEVSLAKAQANAATLAISPTPREGKGEKVKLDVDLSKAVAAFSATKSEDDFEDKKEIALKSLVQSICKLALESKCSIVLFAERYVSRFSSFYDNFSCPDDGLHIIARLPVFYRSELRTFIDKLPPTQNISLYIPYLESASEKKAQRSFYFNSIPKCELDSADEADVIPMTLGLDRIIQFRVKQGD,not soluble
9,MADLDDIKDGKDFHTDKPQTNTLFALKGCGALDWGMQSRLARIFNPKTRKTVMLAFDHGYFQGPTTGLERIDINIAPLFEYADVLMCTRGILRSVVPPAINKPVVLRASGANSILTELSNEAVAVAMDDAVRLNSCAAAAQVYIGSEHEHQSIKNIIQLIDAGLRVGMPIMAVTGVGKDMARDQRYFSLATRIAAEMGAQIIKTYYVDKGFERIAAGCPVPIVIAGGKKLPEREALEMCYQAIDQGASGVDMGRNIFQSEDPVAMIKAVHAVVHHNETAERAYELFLSEKS,not soluble
10,MGSDKIHHHHHHETNNLKTKEDMYKYFGTSKSMLTHVYSYMPQGYQLFATSGGIFTEDRYSMRDCASDDGEFGAYADNIQNTNNGNWSPIKTYDDSWTLYRGIRAANSFIAEIAQVDFTRYEHDGQYTNWMKQLKYFPYEARVLRAHYFFELARRYGDIAMPLEVLTEEEANTIGKTPFSEVISFIVSECDDAANNLPDSYVNEPGAEIGRVTKGFAMAVKSKALLYAASKLHNPSMDTELWKKSAKAAIDIINTGLYSLDPQESANNLDSKEVVLMRINGDDSDFEMFNLPLRMTAGTRTSSLIPYSNYPSQNLVDAFETVNGYKVTLENTGWVCEDPAFDPQSPYENRDKRFYRAILANGMSFKDYTIETFKGGADDGIVSQGGSPTGYFLRKYIQEATSFEPGKEAVSKHHWVIYRYAETLLTYAESMVNAFNDVNYTDETYKYSALWAINEVRKNADMPLIPSMGKDEFMERLYNEWRVEFAFEDHRFWDVRRWKIADTTQRELYGVKIEKQADGTFNFYKNLYETRNWRDCMYLYPIPQSELYKNTNLNPQNTGW,not soluble
11,MSLKEAIVERIVNKLNENQKEKIGVELPSGKRIPEFPVSHLIRFKTWKSLDYVLKDPEMGFGEGYMNGDIEVEGDLEEVIKRGMTLFKDTRKFEKLFGILRHVPLFRTIRDERNVKHHYDLGNDFYRLWLDKSMTYSCAFFEDPSMSIDEAQSLKRRIIYEKLQLKEGDTLLDIGCGWGSIILESAELYNVKSVGITLSDNQYEYVKEEIKKRGLQDKVEVYKLHYVDLPKLGRKFNKVVSVGMFEHVGKENYETFFNTVYKVMEEGGLFLLHTIGKLHPDTQSRWIRKYIFPGGYLPSISEIVESFRDMDFTLIDFDNWRMHYYWTLKKWKERFYENLDKIRNMFDDRFIRMWELYLTASAVSFLIGSNYVFQILLSKGVKDDYPVIKREFSGVLFKEGHHHHHH,not soluble
12,MGSDKIHHHHHHMGNYQHPGIYVQEIAIAPNIEPVAACLPLFIGHTEKSQDANGHPLPLGKRYSVSSLAEYEEHFGKGAPETLRVLLDGKGNIVNAHSYSPFYLYAAVHQYFANGGGQCEILSVGPYSRAPDASALKAAIRALPLNAAFTLVAIPDAVSLAELPQLQRKLLQYCAQQDYCLAILDVPYCNDQTREMTVNTFRHDIGQRGLQHGAAFMPWLETAAAGISGYVDLEIKYTPGVATAWNDFHKATKLQSHLLHKQLEASPAIRFNRMLPPSGSIMALFEANARKRNIWTTPNHTPIKEIISLSATIDNIIQESLNIHPTGKSINAIRRFDNALLMWGGHTLASNDSEWRYIAHLLTRGFVQASLRRFLDQQTFEKNDEATWSLVGHQCQDFLHTLWREGALVGDKPEQAFYVRIGLNQTMSTQDIAAGRIIVHVGIALLRPAEFIILKLHKVISAPDLKPAITRPGKPVNRVKIRAKTSPINVVIRQRQQPSPPSKPLPSEPVS,not soluble
13,HKGTLYVVATPLGNLDDMTFRAVNTLRNAGAIACEDTRRTSILLKHFGIEGKRLVSYHSFNEERAVRQVIELLEEGSDVALVTDAGTPAISDPGYTMASAAHAAGLPVV,not soluble
14,MITCLIVDDELFAREELADSLSQEADIEIIGQCSNAIEALQTITKEKPQLVFLDIQMPRISGMELIAMLDPDTLPKIVFVTAFDEFAVKAFDNHAFDYLLKPIDADRLSKTLKRVRKDLTPQAVNLIAPRSLEHLPCYSGSKLKVIPIQDVEYVFSDLSGIHVACTKGKVHTQLTLKVLEEKTPLVHCHRQYLISPKAIAEIELLDTGAEVTTLLGDKVPVSRRYLKSLKQLFGFQ,not soluble
15,MNWGEGEWNSFFHFFTKEFINMSESFKELFEQSIAGAQFYPGAIITAKVIDIDDDFVTLNAGLKSEGIVAVEEFYDKNGELEVKVGDTVEVALDSVEDGHGETLLSREKAKRQEAWRKLSKCHENNETVTGLISGKVKGGFTVEIGSIRAFLPGSLVDVRPVRDPSYLEGKELEFKVIKMDLKRNNIVVSRRAVVEEESSADRQALLESLHDGQELHGIVKNLTDYGAFIDLGGIDGLLHITDISWKRVKHPSEVLSVGQDVKVKVLSFDSERNRVSLGMKQLGNDPWVDLVERYPIGKRLQGKVTNITDYGCFVEIEEGVEGLVHMSEMDWTNKNVHPSKVVSLGDVVDVMVLEIDEERRRISLGMKQCVGNPWQQFASTHNKGEKVKGKIRSITDFGIFIGLDGDIDGLVHLSDISWTVPGEEAVKQFKKGQELEAVILAIDPERERISLGLKQLEGDSFASFAETYTKGSIVKGTVTAVEPKTVTVALAEDVSGTIRVSELSDERVDDATTIVKVGDEVEAKITNIDRKNRTISLSVKAKDAQDEADAIKKYSRTEAASTTLGDLLKEKMASKEGELEHHHHHH,soluble
16,MAHHHHHHMCADGVDKVPDETDNRETNEKKRPKRKRRYIDIDKMNFDFEEEDFASSSNEELVRRNYVNEEEYTGGYANGYTNEHMNGLPYQKDINMNSEVIRGLLEPPPIPFNDTFQKYNREISDVYVKQKKKSSGTLNIFLESQLLCIDEGAFEKENNFINNHFDNFIMRKLNVVNTTNMQDTTNQNKDLQELLKYLMSWYFSGFYSGRVSMLKELHGE,soluble
17,GMTQLDTWLANTKPLIPVIVIDDLVHAIPMAKALVAGGVHLLEVTLRTEAGLAAISAIKKAVPEAIVGAGTVCTADDFQKAIDAGAQFIVSPGLTPELIEKAKQVKLDGQWQGVFLPGVATASEVMIAAQAGITQLKCFPASAIGGAKLLKAWSGPFPDIQFCPTGGISKDNYKEYLGLPNVICAGGSWLTESKLLIEGDWNEVTRRASEIVKLSDI,soluble
18,MGHHHHHHSHLRHKEPGSGSGGGVYWVDSQQKRYVPVKGDHVIGIVTAKSGDIFKVDVGGSEPASLSYLSFEGATKRNRPNVQAISSRL,not soluble
